Measurements from article doi:10.1101/2022.02.27.482175, “Transient DNA binding to gapped DNA substrates links DNA sequence to the single-molecule kinetics of protein-DNA interactions”.
Where a chain is given by its changes, count along the chain named.

Key:
Settings in all cases: protein: recombinant; tags: His6; Alexa647 label; chain copies: 2; label: 5' biotin strand 1; Cy3B on strand 2 (position 13); blunt
[1] = molecular target: T1, CAP (catabolite activator protein), Alexa647-CAP (UniProt P0ACJ8 2-210, H18C;C179S); test: single-molecule TIRF (koff/kon); 0.2 mM cAMP, 10 mM Mg2+; kon 9.73e6 M-1s-1, t2 8.45 s; 1.5 nM CAP, 0.2 mM cAMP, 40 mM Tris pH 8, 100 mM KCl, 10 mM MgCl2, 5% glycerol, 1 mM TROLOX, glucose oxidase/catalase oxygen scavenger (Methods also lists 40% glucose), 27-30 C
[2] = molecular target: T1, CAP (catabolite activator protein), …; test: single-molecule TIRF (koff/kon); 0.2 mM cAMP, 10 mM Mg2+; kon 10.24e6 M-1s-1, t2 3.3 s; 1.5 nM CAP, 0.2 mM cAMP, 40 mM Tris pH 8, 100 mM KCl, 10 mM MgCl2, 5% glycerol, 1 mM TROLOX, glucose oxidase/catalase oxygen scavenger (Methods also lists 40% glucose), 27-30 C
[3] = molecular target: T1, CAP (catabolite activator protein), …; test: single-molecule TIRF (koff/kon); 0.2 mM cAMP, 10 mM Mg2+; kon 8.74e6 M-1s-1, t2 5.2 s; 1.5 nM CAP, 0.2 mM cAMP, 40 mM Tris pH 8, 100 mM KCl, 10 mM MgCl2, 5% glycerol, 1 mM TROLOX, glucose oxidase/catalase oxygen scavenger (Methods also lists 40% glucose), 27-30 C

B1: CAPcons DNA (GSeq-CAP-(1-49)) (dsDNA)
DNA 1: GTGCCTAAAATGTGATCTAGATCACATTTATTGCGTAGAGCTCACTGCC
DNA 2: GGCAGTGAGCTCTACGCAATAAATGTGATCTAGATCACATTTTAGGCAC
Q: Which Kd [1] does the source give for B1 here?
A: ~12 nM

B2: CAPmut2 DNA (GP25,CP38) (dsDNA)
DNA 1: B1 DNA 1 with G12C, C25G
DNA 2: B1 DNA 2 with G25C, C38G
Q: For B2, which Kd [2] is on record?
A: ~30 nM

B3: CAPmut1 DNA (GP25/CP25) (dsDNA)
DNA 1: B1 DNA 1 with C25G
DNA 2: B1 DNA 2 with G25C
Q: B3 was tested. Which Kd [3] did it give?
A: ~22 nM
